Assay results reported in the supplement of paper PMC7125110.
± gives the standard error. This sample holds only a part of the variants without activity.

B1: glmS ribozyme (parent)
chain: AUAAAAGCGCCAGAACUACAGAAAUGUAGUUGACGAGGAGGAGGUUUAUCGAAUUUUCGGCGGAUGCCUCCAAA

What was measured:
Settings in all cases: with glucosamine-6-phosphate
glucosamine-6-phosphate [1] = variants of: B1; assay: self-cleavage kobs at 640 uM GlcN6P; higher = faster cleavage; RNA array
Method in brief: (§1)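 Weighted Michaelis–Menten fits across concentrations supplied kcat and KM, based on kobs from one- or two-exponential decay fits to normalised per-tile medians. The data came from barcoded ribozyme variants transcribed in situ by E. coli RNA polymerase on sequenced MiSeq chips and tracked at 37 °C by a hybridised Cy3 probe. Glucosamine-6-phosphate (40 μM to 10 mM) in HEPES/KCl/Mg(OAc)2 buffer was flowed in.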

glucosamine-6-phosphate [2] = variants of: B1; assay: self-cleavage kobs at 2500 uM GlcN6P; higher = faster cleavage; RNA array
Method in brief: as §1

glucosamine-6-phosphate [3] = variants of: B1; assay: self-cleavage kobs at 10000 uM GlcN6P; higher = faster cleavage; RNA array
Method in brief: as §1

Variant | self-cleavage kobs at 640 uM GlcN6P (glucosamine-6-phosphate [1]) [s⁻¹] | self-cleavage kobs at 2500 uM GlcN6P (glucosamine-6-phosphate [2]) [s⁻¹] | self-cleavage kobs at 10000 uM GlcN6P (glucosamine-6-phosphate [3]) [s⁻¹]
AUAAAAGCACCAGAACUACAGAAAUGUAUUUGACGAGGAGAAGGAUGAUUGAAUUUUCGGCGGAUGCCUUCAAA [G9A G29U G41A U45A U47G C50U C70U] | < 1e-05 | – | –
AUAAAAACGCCAGAACUACAGAAAUGUAGUUGACGAGGGGGAGGUUUACCGAAUUUUCGGCGGAUGCCACCAAA [G7A A39G U49C U69A] | < 1e-05 | < 1e-05 | < 1e-05
AUAAAAGCGCCAGAAUUACAGAAAUGUAGUUGACGUGUAGGAGGUGUAUCGAAUUUUCGGCGGAUGCCUCCAAA [C16U A36U G38U U46G] | < 1e-05 | < 1e-05 | < 1e-05
AUAAAAGCGCCAGAACUACAGAAAUGUAGUUGACUAGAAGGAGGUUUAUCUAAUUUUCGGCGGAUGCCUCCAAA [G35U G38A G51U] | < 1e-05 | – | –
AUAAAAGCGACAGAAUUACAGAAAUGUAGUUGACGAGGAGGAGGUUUAUCGAAUUUUCGGCGGAUGCAUCCAAA [C10A C16U C68A] | 0.000489 ± 0.00017 | – | –
AUAAAAGCGCCAGAACUACAGAAAUGUAGUUGACGUGGAGGAGGUUUAUCUAAUUGUCAGCGGAUACCUCCAAA [A36U G51U U56G G59A G66A] | < 1e-05 | – | –
AUAAAAGCGCAAGAACUACAGAAAUGUAGUUUACGAGGCGGAGGUUUAUCGAAAUUUCGGCGGAUGGGUCCAAA [C11A G32U A39C U54A C67G C68G] | 0.00137 ± 0.00067 | – | –
AUAAAUGCGCAAGAACUACAGAAAUGUAGUUGGCGAGGAGGAGGUUCAACUAUUUUUCUGCGGAUGCCUCCAAA [A6U C11A A33G U47C U49A G51U A53U G59U] | < 1e-05 | < 1e-05 | –
AUAAAAGCGCCAGAACUACAGAAAUGUAGUUUACGAGGAGGAGGUUUAUCAAAUUUACGGCGGAUGCCUCCAAA [G32U G51A U57A] | < 1e-05 | < 1e-05 | –
AUAAAGGCGCCAGAACUACAGAAAUGUAGUUGACGAGGAGGAGGUUUAUCGAAAUUGCGGCGGAUGCCUCCAAA [A6G U54A U57G] | < 1e-05 | – | –
AUAAAAGAGACAGAACUACAGAAAUGUAGAUGACGAGGAGGAGGUUUAUCGAAUUUUCGGGGGAUGCCUCCAAA [C8A C10A U30A C61G] | < 1e-05 | < 1e-05 | –
AUAAAAGCGCCAGAACUACAGAAAUGUAGGUGACGAUGAUGAGGUUUAUCGAAUUUUCGGCGGAUGCCUCCAAA [U30G G37U G40U] | < 1e-05 | < 1e-05 | –
AUAAAAGCGCCAGAACUACAGAAAUGUAGUUGACGAGGAGGAAGUUUAUCGAAUUUGCGGCGGAUGCCACCAAA [G43A U57G U69A] | < 1e-05 | – | –
AUAAAAGCUCCAGAACUACAGAAAUGUAGUUGACGAGGAGGAGGUUUAUCGAAUUUUCGGCGAAUGCCUCCAAA [G9U G63A] | < 1e-05 | < 1e-05 | < 1e-05
AUAAAAUCGCGAGAACUACAGAAAUGUAGUUGACGAGGAGGAGGUUUAUCGAAUUUUCGGCGGUUGCCUCCAAA [G7U C11G A64U] | < 1e-05 | < 1e-05 | < 1e-05
AUAAAAGCGCCAGAACUACAGAAAUGUAGUUUUCUCGGAGGAGGUUUAUUGAAUUUUCGGCGGAUGCCUCCAAA [G32U A33U G35U A36C C50U] | < 1e-05 | – | –
AUAAAAGCGCAAUAACUACAGAAAUGUAGUUGACGAGGAGGAGGUUUAUCGAAUUUUAGGCCGAUGCCUCCAAA [C11A G13U C58A G62C] | < 1e-05 | – | –
AUAAAGGCGCCAGAACUACAGAAAUGUAGUUGACGAGGAGGAUGUUUAUCGAAUUUUCGGCGGAUGCCGCCAAA [A6G G43U U69G] | < 1e-05 | – | –
AUAAAAGCGCCAGAACUACAGAAAUGUAGUUUAAGAGGAGGAGGUUUAUCGAAUUUUCGGCGGAUGCCUCCAAA [G32U C34A] | < 1e-05 | < 1e-05 | < 1e-05
AUAAAAGCGCCAGAACUACAUAAAUGUAGUUGACGAGGAGGAGGUUUAUCGAACUUUCGGCGGAUGCCCCCAAA [G21U U54C U69C] | 0.00201 ± 0.00057 | 0.000416 ± 0.00014 | –
AUAAAAGCGCCAGAACUACAGAAAUGUAGUUGACGAGGAGGCGGUGUAUCGAAUUUUCGGCGGAUGCCUCGAAA [A42C U46G C71G] | < 1e-05 | < 1e-05 | –
AUAAAAGCGUCAGAACUACAGAAAUGUAGUUGGCGAGGAUGAGGUUUAUGGAAUUUUCGGCGGAUGCCUCCAAA [C10U A33G G40U C50G] | < 1e-05 | – | –
